The record followed here is US7629437.

Sequence of Recombinant human βI tryptase (chain, as listed by the source): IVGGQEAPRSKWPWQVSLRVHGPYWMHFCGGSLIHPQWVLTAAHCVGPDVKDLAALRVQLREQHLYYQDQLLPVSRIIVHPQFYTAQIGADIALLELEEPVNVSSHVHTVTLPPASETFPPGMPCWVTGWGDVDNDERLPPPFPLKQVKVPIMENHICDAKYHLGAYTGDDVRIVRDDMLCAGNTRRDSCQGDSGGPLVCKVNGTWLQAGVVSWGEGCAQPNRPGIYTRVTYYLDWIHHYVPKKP

As a reminder, the Km is the concentration of substrate that gives half-maximal velocity. As a reminder, the kcat is the number of substrate molecules converted per active site and unit of time at saturation. What is called kcat/Km is the second-order rate constant that governs catalysis at low substrate concentration. On to Human thrombin, for which the Km in the series on Ac-Nle-Thr-Pro-Lys-ACC is 125 µM; in the series with Ac-Leu-Gly-Pro-Lys-ACC it was 195 µM; with Ac-Nle-Thr-Pro-Lys-AMC, 115 µM; in the series with Ac-Leu-Gly-Pro-Lys-AMC it was 160 µM. Moreover, the kcat with Ac-Nle-Thr-Pro-Lys-ACC worked out at 33.7 s⁻¹; in the series on Ac-Leu-Gly-Pro-Lys-ACC, 3.2 s⁻¹; in the series with Ac-Nle-Thr-Pro-Lys-AMC, 31 s⁻¹; with Ac-Leu-Gly-Pro-Lys-AMC, 2.3 s⁻¹. Besides, the kcat/Km in the series on Ac-Nle-Thr-Pro-Lys-ACC stood at 280000 M⁻¹ s⁻¹; in the series with Ac-Leu-Gly-Pro-Lys-ACC, 18000 M⁻¹ s⁻¹; in the series on Ac-Nle-Thr-Pro-Lys-AMC, 260000 M⁻¹ s⁻¹; in the series with Ac-Leu-Gly-Pro-Lys-AMC, 15000 M⁻¹ s⁻¹.

Regarding Recombinant human βI tryptase, in the series with Ac-PRTK-ACC, the Km amounted to 14.7 µM, the catalytic constant (kcat) was 18.7 s⁻¹ and the kcat/Km came out at 1.27e+06 M⁻¹ s⁻¹. For the same substance, in the series on Ac-PRNK-ACC, the Km was found to be 8.9 µM; the kcat came to 16.8 s⁻¹; the kcat/Km came to 1.89e+06 M⁻¹ s⁻¹; the “preference (kcat/Km) over Ac-PRTK-ACC” value is listed as “A minimal preference, approximately two-fold, for P2-asparagine over P2-threonine”. Also, in the series with Ac-PRNR-ACC, the Km was 16.5 µM, the kcat is 21.8 s⁻¹ and the kcat/Km stood at 1.31e+06 M⁻¹ s⁻¹. In addition, in the series with Ac-PANK-ACC, the Michaelis constant (Km) was 110 µM, the kcat worked out at 20.3 s⁻¹ and the kcat/Km is 180000 M⁻¹ s⁻¹.

On to Recombinant human βII tryptase, for which the Km in the series on Ac-PRTK-ACC came out at 23.4 µM; in the series with Ac-PRNK-ACC it was 14.5 µM; in the series with Ac-PRNR-ACC, 18.6 µM; in the series with Ac-PANK-ACC it was 133 µM. Further, the kcat with Ac-PRTK-ACC is 18.3 s⁻¹; with Ac-PRNK-ACC it was 17.8 s⁻¹; in the series with Ac-PRNR-ACC, 20.9 s⁻¹; in the series with Ac-PANK-ACC it was 19.1 s⁻¹. For the same substance, the kcat/Km with Ac-PRTK-ACC was found to be 780000 M⁻¹ s⁻¹; in the series on Ac-PRNK-ACC, 1.23e+06 M⁻¹ s⁻¹; in the series with Ac-PRNR-ACC, 1.12e+06 M⁻¹ s⁻¹; in the series on Ac-PANK-ACC, 140000 M⁻¹ s⁻¹. For the same substance, the “preference (kcat/Km) over Ac-PRTK-ACC” value in the series on Ac-PRNK-ACC is recorded as “A minimal preference, approximately two-fold, for P2-asparagine over P2-threonine”.
